What all share (experiment): EMSA
Common to all, as to details: pH 7.9, temperature not given, scale: slope of unbound DNA vs protein
(In general: A gel shift assay detects complexes by their altered migration in electrophoresis.)

The test system of series [1] is FlhD (E. coli);FlhC (E. coli) (Escherichia coli;Escherichia coli).
Series [2] concerns FlhD (E. coli);FlhC (S. enterica) (Escherichia coli;Salmonella enterica sv Typhimurium).
Series [3] relates to FlhD (S. enterica);FlhC (E. coli) (Salmonella enterica sv Typhimurium;Escherichia coli).
Series [4] relates to FlhD (S. enterica);FlhC (S. enterica) (Salmonella enterica sv Typhimurium;Salmonella enterica sv Typhimurium).

Turning to PflgAB promoter PCR product, the binding signal is -1570 in series [1], -784 in series [2], -1120 in series [3] and -906 in series [4].

The values are drawn from PMC6232118.
